According to paper PMC9919357:

Molecular target: Neuropeptide Y (TAMRA-NPY) (Sus scrofa), P01304

Kd: 32 nM
B1: Neuropeptide Y receptor type 2 (Y2R-A202C), P49146 (protein)
chain: MGPIGAEADENQTVEEMKVEQYGPQTTPRGELVPDPEPELIDSTKLIEVQVVLILAYASIILLGVIGNSLVIHVVIKFKSMRTVTNFFIANLAVADLLVNTLALPFTLTYTLMGEWKMGPVLCHLVPYAQGLAVQVSTITLTVIALDRHRAIVYHLESKISKRISFLIIGLAWGISALLASPLAIFREYSLIEIIPDFEIVCCTEKWPGEEKSIYGTVYSLSSLLILYVLPLGIISFSYTRIWSKLKNHVSPGAANDHYHQRRQKTTKMLVAVVVVFAVSWLPLHAFQLAVDIDSQVLDLKEYKLIFTVFHIIAMASTFANPLLYGWMNSNYRKAFLSAFRCEQRLDAIHSEVSVTFKAKKNLEVRKNSGPNDSFTEATNV
